Reference: US20140120095A1 (Boehringer Ingelheim, published 2014)
Each block holds one binder with its values, some of them ahead of it.

Assays:
[1] = biological target: T1, recombinant human VEGF165 (human, UniProt P15692-4 27-191, biotinylated in the competition assays); experiment: ProteOn off-rate assay, periplasmic extract on coated hVEGF165
T1 construct: Bought protein; also called hVEGF165; rhVEGF165
Procedure: One additional variant is constructed in which the potential oxidation site at position M30 (CDR1 region, see FIG. 38 indicated as bold italic residue) is removed by introduction of a M30I mutation. […] Off-rates are calculated and compared to the off-rates of the parental VEGFBII5B05.

VEGFC = biological target: T2, VEGFC (UniProt P49767 103-227, limits assumed); experiment: binding ELISA on coated VEGFC (Example 12.8), OD 450 nm
T2 sequence (looked up): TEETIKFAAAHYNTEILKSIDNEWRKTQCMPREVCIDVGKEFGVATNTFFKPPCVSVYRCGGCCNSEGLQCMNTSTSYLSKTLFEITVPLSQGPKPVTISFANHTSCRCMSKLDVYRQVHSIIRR
Procedure: (§1) Binding to VEGFB, VEGFC, VEGFD and PIGF is assessed via a solid phase binding ELISA. […] Wells are blocked with a casein solution (1% in PBS). […] As positive controls serial dilutions of the appropriate receptors are taken along and detected with horseradish peroxidase (HRP)-conjugated goat anti-human IgG, Fc specific antibody (Jackson Immuno Research Laboratories Inc., West Grove, Pa., USA) and a subsequent enzymatic reaction in the presence of the substrate TMB (3,3′,5,5′-tetramentylbenzidine) (Pierce, Rockford, Ill., USA).

VEGFD = biological target: T3, VEGFD (UniProt O43915 93-201, limits assumed); experiment: solid phase binding ELISA on coated VEGF D (Example 12.8)
T3 sequence (looked up): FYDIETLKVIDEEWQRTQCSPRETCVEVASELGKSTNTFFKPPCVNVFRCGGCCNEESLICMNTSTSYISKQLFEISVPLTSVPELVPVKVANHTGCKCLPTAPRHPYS
Procedure: as §1

PIGF = biological target: T4, PIGF (UniProt P49763-2 21-149, limits assumed); experiment: solid phase binding ELISA on coated PIGF (Example 12.8)
T4 construct: also called placenta growth factor
T4 sequence (looked up): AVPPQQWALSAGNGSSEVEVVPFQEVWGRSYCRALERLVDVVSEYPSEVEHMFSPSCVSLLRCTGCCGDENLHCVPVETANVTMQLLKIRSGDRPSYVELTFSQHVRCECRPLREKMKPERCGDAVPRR
Procedure: as §1

VEGFB = biological target: T5, VEGFB (UniProt P49765-2 22-188, limits assumed); experiment: binding ELISA on coated VEGFB (Example 12.8), OD 450 nm
T5 sequence (looked up): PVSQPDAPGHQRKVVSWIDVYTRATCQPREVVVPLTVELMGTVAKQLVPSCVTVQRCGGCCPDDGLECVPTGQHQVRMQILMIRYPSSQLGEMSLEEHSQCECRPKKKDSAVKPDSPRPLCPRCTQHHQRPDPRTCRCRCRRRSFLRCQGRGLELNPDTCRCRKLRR
Procedure: as §1

[2] = biological target: T1, recombinant human VEGF165; experiment: AlphaScreen, hVEGF165/hVEGFR2-Fc competition, -HSA
[3] = biological target: T6, human DLL4, full length, overexpressed on cells (human, UniProt Q9NR61 27-685); experiment: FMAT, hNotch1-Fc on CHO-hDLL4, -HSA
T6 construct: CHO cells in FMAT, HEK293 cells in the reporter assay; also called hDLL4; CHO-hDLL4

[4] = biological target: T7, mouse DLL4, full length, overexpressed on CHO cells (mouse, UniProt Q9JI71 27-686); experiment: FMAT, hNotch1-Fc on CHO-mDLL4, -HSA
T7 construct: whole, on cells; also called mDLL4; CHO-mDLL4

[5] = biological target: T7, mouse DLL4, full length, overexpressed …; experiment: FMAT, hNotch1-Fc on CHO-mDLL4, +25 uM HSA
[6] = biological target: T6, human DLL4, full length, overexpressed …; experiment: FMAT, hNotch1-Fc on CHO-hDLL4, +25 uM HSA
[7] = biological target: T1, recombinant human VEGF165; experiment: AlphaScreen, hVEGF165/hVEGFR1-Fc competition, -HSA
[8] = biological target: VEGF (used to stimulate HUVEC cells) (UniProt P15692-4 27-191, limits assumed); experiment: cell-based or functional assay
[9] = biological target: T6, human DLL4, full length, overexpressed …; experiment: cell-based or functional assay
[10] = biological target: T1, recombinant human VEGF165; experiment: AlphaScreen, hVEGF165/hVEGFR2-Fc competition, +5 uM HSA
Procedure: These 2 competition assays are also performed after preincubation of the VHHs with 5 μM human serum albumin.

[11] = biological target: T8, human DLL4 expressed on cells (CHO-hDLL4; HEK293-hDLL4) (human, UniProt Q9NR61 27-685); experiment: cell-based or functional assay
[12] = biological target: T9, recombinant human DLL4 (C-terminally His-tagged extracellular domain, R&D Systems) (human, UniProt Q9NR61 25-522, biotinylated in the competition ELISA); experiment: SPR (Biacore), recombinant human DLL4
T9 construct: also called rhDLL4; hDLL4
Procedure: Kinetic analysis to determine the affinity of the DII4-VHH interaction is performed by Surface Plasmon Resonance (SPR) on a Biacore T100 instrument. […] Purified VHHs or Fab fragment are injected for 2 minutes at different concentrations (between 10 and 300 nM) and allowed to dissociate for 20 min at a flow rate of 45 μl/min. Between sample injections, the surfaces are regenerated with 10 mM glycine pH1.5 and 100 mM HCl. HBS-N (Hepes buffer pH7.4) is used as running buffer. If possible, data are evaluated by fitting a 1:1 interaction model (Langmuir binding) onto the binding curves. The affinity constant KD is calculated from resulting association and dissociation rate constants (kₐ) and […].

[13] = biological target: T8, human DLL4 expressed on cells …; experiment: competition FMAT, labelled hNotch1-Fc on CHO-hDLL4 cells

T7 sequence (Q9JI71 27-686): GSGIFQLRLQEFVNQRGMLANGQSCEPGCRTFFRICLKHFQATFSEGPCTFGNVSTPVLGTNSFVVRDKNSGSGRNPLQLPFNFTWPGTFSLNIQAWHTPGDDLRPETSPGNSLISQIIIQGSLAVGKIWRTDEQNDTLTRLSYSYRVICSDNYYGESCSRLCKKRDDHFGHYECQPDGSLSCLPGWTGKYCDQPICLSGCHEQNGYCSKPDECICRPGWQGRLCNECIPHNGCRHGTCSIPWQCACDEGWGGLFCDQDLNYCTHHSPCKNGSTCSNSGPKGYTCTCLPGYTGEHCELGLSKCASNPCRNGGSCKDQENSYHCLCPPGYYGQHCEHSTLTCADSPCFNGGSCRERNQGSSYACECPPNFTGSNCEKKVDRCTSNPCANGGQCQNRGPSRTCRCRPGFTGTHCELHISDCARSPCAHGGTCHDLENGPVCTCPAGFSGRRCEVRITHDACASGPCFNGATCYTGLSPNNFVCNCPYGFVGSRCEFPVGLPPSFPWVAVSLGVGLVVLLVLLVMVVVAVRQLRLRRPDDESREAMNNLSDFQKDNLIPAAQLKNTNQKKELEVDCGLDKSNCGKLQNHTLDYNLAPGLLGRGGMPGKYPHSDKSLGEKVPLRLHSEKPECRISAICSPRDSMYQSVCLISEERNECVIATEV
Chain of VEGF (used to stimulate HUVEC cells) (P15692 other isoform, or with tags, fused parts or gaps limits assumed): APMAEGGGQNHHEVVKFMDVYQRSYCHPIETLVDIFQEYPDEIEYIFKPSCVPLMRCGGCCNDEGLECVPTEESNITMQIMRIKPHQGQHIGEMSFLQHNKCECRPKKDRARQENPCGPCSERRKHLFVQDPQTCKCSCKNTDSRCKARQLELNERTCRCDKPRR
T1 sequence (P15692 other isoform, or with tags, fused parts or gaps): as the sequence (P15692 other isoform, or with tags, fused parts or gaps limits assumed) above

B1: VEGFBII119G11 (VHH)
VHH: EVQLVESGGGLVQPGGSLRLSCAASGIRFMSMAWYRQAPGKQRELVARISSGGTTAYADSVKGRFTISRDNSKNTVYLQMNSLRAEDTAVYYCNTFSSRPNPWGQGTLVTVSS
notes: Humanization variant of VEGFBII5B05; tested as periplasmic extract
binding level (RU) [1]: 234 RU | koff [1]: 0.0775 s⁻¹

B2: VEGFBII120E10 (VHH)
VHH: EVQLVESGGGLVQPGGSLRLSCVASGIRFISMAWYRQAPGKHRELVARISSGGTTAYVDSVKGRFTISRDNSKNTVYLQMNSLKAEDTAVYYCNTFSSRPNPWGAGTQVTVSS
notes: M30I variant of VEGFBII5B05; tested as periplasmic extract
binding level (RU) [1]: 257 RU | koff [1]: 0.0468 s⁻¹

B4: VEGFDLLBII014 (bispecific antibody)
chain: EVQLVESGGGLVQTGDSLRLSCEVSGRTFSSYSMGWFRQAQGKEREFVVAISKGGYKYDSVSLEGRFTISKDNAKNTVYLQINSLKPEDTAVYYCASSRAYGSSRLRLADTYEYWGQGTQVTVSSGGGGSGGGSEVQLVESGGGLVQPGGSLRLSCVASGIRFMSMAWYRQAPGKHRELVARISSGGTTAYVDSVKGRFTISRDNSKNTVYLQMNSLKAEDTAVYYCNTFSSRPNPWGAGTQVTVSSGGGGSGGGGSGGGGCGGGGSGGGGSGGGGSGGGGSEVQLVESGGGLVQAGGSLRLSCAASGRTFSSYAMAWYRQAPGKEREYVAAIRWSGGTAYYADSVQGRFTISRDNAKNTVYLQMNSLKPEDTAVYYCANRAPDTRLAPYEYDHWGQGTQVTVSS
modifications: PEGylated at the Cys at position 15 of the 35 Gly-Ser linker
notes: VEGFBII23B04 - 9GS - VEGFBII5B05 - 35GS(Cys15) - DLLBII129B05
% inh [2]: 100% | IC50 [2]: 0.026 nM | % inh [3]: 100% | IC50 [3]: 9.9 nM | % inh [4]: 100% | IC50 [4]: 15.4 nM | % inh [5]: 100% | IC50 [5]: 15.4 nM | % inh [6]: 100% | IC50 [6]: 12.3 nM | % inh [7]: 94% | IC50 [7]: 0.08 nM | % inhibition, VEGF HUVEC proliferation assay, -HSA [8]: 98% | IC50, VEGF HUVEC proliferation assay, -HSA [8]: 0.49 nM | IC50, DLL4 mediated reporter assay, +HSA [9]: 122 nM | % inh [10]: 100% | IC50 [10]: 0.024 nM

B6: DLLBII017 (VHH, not shown: small tags and cut ends)
VHH: EVQLVESGGGLVQPGGSLRLSCAASGRTFSSYAMAWYRQAPGKEREYVAAIRWSGGTAYYADSVQGRFTISRDNAKNTVYLQMNSLRPEDTAVYYCANRAPDTRLAPYEYDHWGQGTLVTVSS
IC50, DLL4-mediated reporter assay (hDLL4) [11]: 126 nM | Kd [12]: 0.2 nM | koff [12]: 8e-05 s⁻¹ | kon [12]: 370000 M⁻¹ s⁻¹ | IC50 [13]: 12.1 nM

B7: VEGFDLLBII015 (bispecific antibody)
chain: EVQLVESGGGLVQTGDSLRLSCEVSGRTFSSYSMGWFRQAQGKEREFVVAISKGGYKYDSVSLEGRFTISKDNAKNTVYLQINSLKPEDTAVYYCASSRAYGSSRLRLADTYEYWGQGTQVTVSSGGGGSGGGGSGGGGCGGGGSGGGGSGGGGSGGGGSEVQLVESGGGLVQPGGSLRLSCVASGIRFMSMAWYRQAPGKHRELVARISSGGTTAYVDSVKGRFTISRDNSKNTVYLQMNSLKAEDTAVYYCNTFSSRPNPWGAGTQVTVSSGGGGSGGGGSGGGGSGGGGSGGGGSGGGGSGGGGSEVQLVESGGGLVQAGGSLRLSCAASGRTFSSYAMAWYRQAPGKEREYVAAIRWSGGTAYYADSVQGRFTISRDNAKNTVYLQMNSLKPEDTAVYYCANRAPDTRLAPYEYDHWGQGTQVTVSS
modifications: PEGylated at the Cys at position 15 of the 35 Gly-Ser linker
notes: VEGFBII23B04 - 35GS(Cys15) - VEGFBII5B05 - 35GS - DLLBII129B05
% inh [2]: 100% | IC50 [2]: 0.016 nM | % inh [3]: 100% | IC50 [3]: 9.5 nM | % inh [4]: 100% | IC50 [4]: 12.2 nM | % inh [5]: 100% | IC50 [5]: 11.2 nM | % inh [6]: 100% | IC50 [6]: 10 nM | % inh [7]: 96% | IC50 [7]: 0.04 nM | % inhibition, VEGF HUVEC proliferation assay, -HSA [8]: 109% | IC50, VEGF HUVEC proliferation assay, -HSA [8]: 0.49 nM | IC50, DLL4 mediated reporter assay, +HSA [9]: 134 nM | % inh [10]: 100% | IC50 [10]: 0.015 nM

Now from value to binder:

binding result (VEGFC): no binding (tested: 5e-7 M) | binding result (VEGFD): no binding (tested: about 5e-7 M) | binding result (PIGF): no binding (tested: about 5e-7 M) | binding result (VEGFB): no binding (tested: 5e-7 M)
B3: VEGFBII024 (VHH)
chain: EVQLVESGGGLVQTGDSLRLSCEVSGRTFSSYSMGWFRQAQGKEREFVVAISKGGYKYDSVSLEGRFTISKDNAKNTVYLQINSLKPEDTAVYYCASSRAYGSSRLRLADTYEYWGQGTQVTVSSGGGGSGGGGSGGGGSGGGGSGGGGSGGGGSGGGGSGGGGSEVQLVESGGGLVQAGGSLRLSCTASGSAFKSYRMGWFRRTPGKEDEFVASISWTYGSTFYADSVKGRFTMSRDKAKNAGYLQMNSLKPEDTALYYCAAGAQSDRYNIRSYDYWGQGTQVTVSS
notes: bivalent (heterodimeric) VHH; also called VEGFBII23B04-40GS-86H09

binding result (VEGFC): no binding (tested: 5e-7 M) | binding result (VEGFD): no binding (tested: about 5e-7 M) | binding result (PIGF): no binding (tested: about 5e-7 M) | binding result (VEGFB): no binding (tested: 5e-7 M)
B5: VEGFBII025 (VHH)
chain: EVQLVESGGGLVQAGGSLRLSCAASGRTFSNYAMGWFRQAPGKERVLVADISSSGINTYVADAVKGRFTISRDNAKNTVYLQMNSLKPEDTAVYYCAASAWWYSQMARDNYRYWGQGTQVTVSSGGGGSGGGGSGGGGSGGGGSGGGGSGGGGSGGGGSGGGGSEVQLVESGGGLVQTGDSLRLSCEVSGRTFSSYSMGWFRQAQGKEREFVVAISKGGYKYDSVSLEGRFTISKDNAKNTVYLQINSLKPEDTAVYYCASSRAYGSSRLRLADTYEYWGQGTQVTVSS
notes: bivalent (heterodimeric) VHH; also called VEGFBII10E07-40GS-23B04

binding result (VEGFC): no binding (tested: 5e-7 M) | binding result (VEGFD): no binding (tested: about 5e-7 M) | binding result (PIGF): no binding (tested: about 5e-7 M) | binding result (VEGFB): no binding (tested: 5e-7 M)
B8: VEGFBII021 (VHH)
chain: EVQLVESGGGLVQTGDSLRLSCEVSGRTFSSYSMGWFRQAQGKEREFVVAISKGGYKYDSVSLEGRFTISKDNAKNTVYLQINSLKPEDTAVYYCASSRAYGSSRLRLADTYEYWGQGTQVTVSSGGGGSGGGGSGGGGSGGGGSGGGGSGGGGSGGGGSGGGGSEVQLVESGGGLVQPGGSLRLSCVASGIRFMSMAWYRQAPGKHRELVARISSGGTTAYVDSVKGRFTISRDNSKNTVYLQMNSLKAEDTAVYYCNTFSSRPNPWGAGTQVTVSS
notes: bivalent (heterodimeric) VHH; also called VEGFBII23B04-40GS-5B05
